From US20180071389A1 (HER MAJESTY THE QUEEN IN THE RIGHT OF CANADA AS REPRESENTED …, published 2018)

T1: sGP 1-295aa (Ebola virus (ZEbov by the title of …, UniProt P60170 33-295))
T1 sequence: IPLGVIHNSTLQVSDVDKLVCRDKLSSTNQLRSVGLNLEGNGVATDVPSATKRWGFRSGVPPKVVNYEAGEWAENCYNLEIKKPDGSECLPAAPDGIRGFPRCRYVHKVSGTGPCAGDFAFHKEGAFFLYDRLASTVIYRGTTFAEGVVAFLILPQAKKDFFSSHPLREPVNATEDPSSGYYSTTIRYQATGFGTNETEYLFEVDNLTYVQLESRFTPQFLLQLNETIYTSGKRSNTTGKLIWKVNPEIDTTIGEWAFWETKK

T2: Mucin domain 333-458aa (Ebola virus (ZEbov by the title of …, UniProt Q05320 333-458))
T2 sequence: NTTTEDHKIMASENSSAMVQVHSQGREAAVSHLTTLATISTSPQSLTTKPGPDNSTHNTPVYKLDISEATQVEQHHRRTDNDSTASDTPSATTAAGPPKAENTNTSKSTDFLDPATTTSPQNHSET

T3: GP1 1-501aa (Ebola virus (ZEbov by the title of …, UniProt Q05320 33-501))
T3 sequence: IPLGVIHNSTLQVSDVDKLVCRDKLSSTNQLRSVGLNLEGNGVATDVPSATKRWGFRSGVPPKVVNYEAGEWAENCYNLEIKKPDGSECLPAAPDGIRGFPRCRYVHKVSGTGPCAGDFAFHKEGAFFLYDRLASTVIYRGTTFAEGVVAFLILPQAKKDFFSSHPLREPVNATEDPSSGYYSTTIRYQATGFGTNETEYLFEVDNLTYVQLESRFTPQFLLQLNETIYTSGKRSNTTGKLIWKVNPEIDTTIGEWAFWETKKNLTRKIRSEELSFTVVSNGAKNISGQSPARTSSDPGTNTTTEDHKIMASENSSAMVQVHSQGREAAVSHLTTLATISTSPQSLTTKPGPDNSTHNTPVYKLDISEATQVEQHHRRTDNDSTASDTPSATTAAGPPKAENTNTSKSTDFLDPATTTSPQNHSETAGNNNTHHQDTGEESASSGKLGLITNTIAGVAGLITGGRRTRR


Assays:
Assay in all cases: ELISA, antigen coated 0.3 µg/well, serial dilutions of MAb
sGP 1-295aa = molecular target: T1, sGP 1-295aa
Mucin domain 333-458aa = molecular target: T2, Mucin domain 333-458aa
GP1 1-501aa = molecular target: T3, GP1 1-501aa

Row | Binder | binding result (sGP 1-295aa) | binding result (Mucin domain 333-458aa) | binding result (GP1 1-501aa)
1 | monoclonal antibody 5D2 (antibody, V domains shown) VH: GPGLVRPSQSLSLTCTVTGYSITSDYAWNWIRQFPGNKLEWLGYITNTGSTGFNPSLKSRISITRDTSKNQFFLQLISVTTEDTATYHCARGLAYWGQGTLVTVSA VL: not shown | no binding (tested: Cut off was 2X background) |  | 
2 | monoclonal antibody 5E6 (antibody, V domains shown) VH: GGGLVKPGGSLKLSCAASGSAFSRYDMSWVRQTPEKRLEWVAYISRGGGFIYYPDTVKGRFTISRDNAKNTLYLQMSSLKSDDTAMYYCARHVYYGSSPLYAMDYWGQGTSVTVSS VL: SASFSLGASAKLTCTLSSQHSTFTIEWYQQQPLKPPKYVMELKKDGSHSTGDGIPDRFSGSSSGADRYLSISNIQPEDEAIYICGVGDTINEQFVYVFGGGTKVTVLG | no binding (tested: Cut off was 2X background) |  | 
3 | monoclonal antibody 7C9 (antibody, V domains shown) VH: GAELVKPGASVKLSCTASGFNIKDTYMHWVKERPDKGLEWIGRIDPANGNTKCDSRFQGKATITADTSSNTAYLQLSSLTSEDTAVYYCARRIYFGKGFDFWGQGTTLTVSS VL: SSLSVSAGEKVTMSCKSSQSLFNSGDQKNYLAWYQQKPGQPPKLLIYGASTRESGVPDRFTGSGSGTDFTLTISSVQAEDLAVYYCQNDQFYPPTFGDGTKLDLKR | no binding (tested: Cut off was 2X background) |  | 
4 | monoclonal antibody 7G4 (antibody, V domains shown) VH: GGGLVQPGGSLRLSCATSGFTFTDHYMGWVRQPPGKALEWLAFVRYKAKGYTTEYTASVKGRFTISRDNSQSILYLQMNTLRTEDSATYYCARDRGGYVGAMDYWGQGTSVTVSS VL: LSLPVSLGDQASISCRSSQSLVHRNGNTYFHWYLQKPGQSPKLLIYKVSNRFSGVPDRFSGSGSGTDFTLKISRVEAEDLGVYFCSQSTHVPYTFGGGTKLEIKR | no binding (tested: Cut off was 2X background) |  | 
5 | monoclonal antibody 10C8 (antibody, V domains shown) VH: GAELVRSGASVKLSCTSSGFNIKDYFLHWVKQRPEQGLEWIGWIDPENGDTEYAPKFQDKATMTADTSSNTAYLHLSSLTSEDTGVYYCNADGNYGKNYWGQGTTLTVSS VL: LSLPVSLGDQASISCRSSQSLVHSNGNTFLHWYLQKPGQSPKLLIYRVSNRFSGVPDRFSGSGSGTDFTLKISRVEAEDLGVYFCSQSTHVPPYTFGGGTKLEIKR | no binding (tested: Cut off was 2X background) |  | 
6 | monoclonal antibody 1H3 (antibody, V domains shown) VH: GAELVKPGASVKLSCTASGFNIKDTYIHWVKQGPEQGLEWIGRIDPANGNTKYDPKFQGKATITADTSSNTAYLQLSGLTSEDTAVYYCARESRISTMLTTGYFDYWGQGTTLTVSS VL: AIMSASPGEKVTMTCSASSSVSYMYWYQQKPGSSPRLLIYDTSNLASGVPVRFSGSGSGTSYSLTISRMEAEDAATYYCQQWSSYPYTFGGGTKLEIKR |  | no binding (tested: Cut off was 2X background) | 
7 | monoclonal antibody 2G4 (antibody, V domains shown) VH: GGGLMQPGGSMKLSCVASGFTFSNYWMNWVRQSPEKGLEWVAEIRLKSNNYATHYAESVKGRFTISRDDSKRSVYLQMNTLRAEDTGIYYCTRGNGNYRAMDYWGQGTSVTVSS VL: ASLSVSVGETVSITCRASENIYSSLAWYQQKQGKSPQLLVYSATILADGVPSRFSGSGSGTQYSLKINSLQSEDFGTYYCQHFWGTPYTFGGGTKLEIKR | no binding (tested: Cut off was 2X background) | no binding (tested: Cut off was 2X background) | no binding (tested: Cut off was 2X background)
8 | monoclonal antibody 4G7 (antibody, V domains shown) VH: GPELEMPGASVKISCKASGSSFTGFSMNWVKQSNGKSLEWIGNIDTYYGGTTYNQKFKGKATLTVDKSSSTAYMQLKSLTSEDSAVYYCARSAYYGSTFAYWGQGTLVTVSA VL: ASLSASVGETVTITCRASENIYSYLAWYQQKQGKSPQLLVYNAKTLIEGVPSRFSGSGSGTQFSLKINSLQPEDFGSYFCQHHFGTPFTFGSGTELEIKR | no binding (tested: Cut off was 2X background) | no binding (tested: Cut off was 2X background) | 
